Earlier results in publication PMC6935268.

Molecular target: CD80 (Homo sapiens) (UniProt P33681)
Chain of UniProt P33681 (P33681 35-242): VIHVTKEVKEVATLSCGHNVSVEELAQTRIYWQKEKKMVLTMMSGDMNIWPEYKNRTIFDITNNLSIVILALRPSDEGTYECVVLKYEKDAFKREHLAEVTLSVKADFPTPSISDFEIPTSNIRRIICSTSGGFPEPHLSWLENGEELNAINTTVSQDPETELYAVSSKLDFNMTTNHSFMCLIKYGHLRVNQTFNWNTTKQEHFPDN

PD-L1 (from UniProt Q9NZQ7)
Kd: 17.8 µM
